Measurements taken from the nanobody polyreactivity screen of Harvey et al. (2022).

Assay: yeast display, Sf9 membrane polyspecificity reagent, FACS + sequencing; frameworks hold sequencing errors
In short: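 Using colony PCR, genes from sorted yeast display clones were amplified, then sequenced on MiSeq at 2 × 250 and filtered by CDR length. The clones had been stained with 10% biotinylated, detergent-solubilized Sf9 membrane reagent for 1 hour at 4 °C and sorted by FACS into low and high (top ~1%) gates on anti-HA and streptavidin fluorescence. Polyreactivity labels come from the gate of origin.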

Sequence	polyreactivity (PSR sort gate)
QVQLVESGGGLVQAGGSLGLSCAASGSFFYQNAMGWYRQAPGKDREWVAAISRSGGSTYYADSVMGRFTISRDNAKISVDEQMNSLQPEDTPVYYCAARNSRQGSYSRDFWGQGTQVTVSS	high polyreactivity
QVQLVESGGGLVQAGGSLRLSCAASGIIFRNYAMGWYRQAPGKERELVAAISWTGDSTYYADSVKGRFTISRDNAKNTVYLQMNSLKPEDTAVDYCAAEAYYGLWMDYWGQGTQVTVSS	low polyreactivity
QVQLVESGGGLVQAGGSLRLSCAASGITFGRNTLGRYRQAPGKVRELVAAIDSGGNTYADSVKGRFTISRDNAKNTVYLQMNSLKPEDTAVYYCAVDGCEFSSYGYWGQGTQGTVSS	low polyreactivity
QVQLVESGGGLVQAGGSLRLSCAASGSTFTLNAMGWYRQAPGKECELVADISWSSGRTYYADSVKGRFTISRDNAKNTVYLHMNSLKPEDTAVYYCATDDFWNVKFYAYYPEFDYWGQGTQVTVSS	low polyreactivity
QVQLVESGGGLVQAGGSLRLSSAASGRIFIGNAMGWYRQAPGKERELVAAISKGGGSTYYADSVKGRFTISRDNAKNTVYLQMNSLKPEDTAVYYCNKLRYPLLPPKYYYWGQGTQVTVSS	high polyreactivity
QVQLVESGGGLDQAGGSLRLSCAASGNIFSDSTMGWYRQAPGKEIELVAAISGDGGTTYYADSVKGRFTISRDNAKHTVYLQMNSLKPEDTAVYFCAGDGYYDAYDQFFIVYYEYDYWGQGTQVTVSS	low polyreactivity
QVQLVESGGGLVQAGGSLRLSCAASGRIFAYNTMGWSRQAPGKERELVAVITSGGSTNYADSVKGRFTISRDNAKNTVYLQMNSLKPEDTAVYYCAKRPYCRSGGSRYDYWGQGTQVTVSS	high polyreactivity
QVQLVESGGGLDQARGSLRLSCAASGSTFAFYAMGWYRQAPGKERELVAAITGDGDSTYYADSVKGRFTISRDNAKNTVYLQMNSLKPEDTAVYYCAKSSGGGPSSFDYWGQGTQVTVSS	low polyreactivity
QVQLVESGGGLVQAGGSLRLSCAASGLIFNYNSMGWYLQAPGKEMELVAVITSGDSTNYADSVKGRFTISRDNAKNTVYLQMNSLKPEDTAVYYCNADYVYSGGRYYGKDYWFDYWGQGTQVTVSS	low polyreactivity
QVQLVESGGGLVQAGGSLRLSCAASGFTFPVYGMGWYRQAPGKERELVAAISSRGGNTYYADSVKGRFTISRDNAKNTVYLQMNSLKPEDTAVYYCAAGGITYTGDDYWGQGTQVTVSS	high polyreactivity
QVQLVESGGGLVQAGGSLRLSCAASGRTFLAIGWYRQAPGKETELVATINGSDGNTYYADSVKGRFTISRDNAENTVYLQMNILKPEDTAVYYCAKRADHTYLPLRPGYPEYNYWRQGTQVTVSS	low polyreactivity
QVQLVESGGGLVQAGGSLRLSCAASGFTFDYYAMGWYRQAPGKERELVAAISKSGGSTYYADSVKGRFTISRDNAKNTVYLQLISLKPEDTAVYYCAAYTYVRSKNKGGDYWGQGTQVTVSS	high polyreactivity
QGQLVESGGALVQAGGSLRLSCAASGRILRYYAMGWNRQAPGKERELVAVITSSDGSTYYADSVKGRFTISRDNAKNTVYLQQNSLKPEDTAVDYCAAAPLWRVASWWDPYRRYDYWGQGTQVTVSS	low polyreactivity
QVQLVESGGCLVQAGGSLRLSCAASGYIFFINSMGWYRQAPGKERELVAAITRRGVSTYYADSVKGRFTISRDNAKNSVYLQMHSLKPEDTAVYYCATEHNHLGYYYWGQGTQVTVSS	low polyreactivity
QVQLVESGGGLVQAGGSLRLSCAASGLTFWHYAMGWYRQAHGKERELVAAISSGGRTYYADSVKGRFTISRDNAKNTVYLKMNSLKPEDSAVYYCAARGPQYYVYGYDYWGQGTQVTVSS	high polyreactivity
QVQLVESGGGLVQAGGSLRLSCAASGSIFGIYAMGWYRQAPGKERELVAAIRRGGSTYYADSVKGRFTISRDNAKNTVYLQMNSLKPEDTAVYYCAARKYRLWGKGVDYDYWGQGTQVTVSS	high polyreactivity
QVQLVESGGGLVQAGGSLRLSCAASGFTFYGYAMGWYRQAPGKEREFVAAISSRGGRTYYADSVKGRFTISRDNAKNTVYLQMNSLKPEDTAVYYCARRRATGRFSLDYWGQGTQVTVSS	high polyreactivity
QVQLQESGGGLVQAGGSLRMSFAASGNIFDADIMGWYRPAPGKEPELVASITDGRRTNYADSVKGRYTIRRDSEKNTVYLQMNSLKPEDTAVYYCAAIAYPVVPTFVDFDSDYFHWGQGTHVTVSS	high polyreactivity
QVQLVESGGGLVQAGGSLRLSCAASGSTFSRYAMGWYRQAPGKEMELVAAITGSGGNTYYADSVKGRFTISRDNAKNTVYLQMNSLKPEDTAVYYCAAEDYVGWYNFEYWGQGTQVTVSS	high polyreactivity
QVQLVESGGGLVQAGGSLRLSCAASGSIFLKYDMGWYRQAPGKERELVAAISRGGDTNYADSVKGLFTISRDNAKNCVYLQMNSLKPEDTAVYDCAARPGLYFTRRGRYYLGQGTQVTVSS	high polyreactivity
QVQLVEACGGLVQAGGSLRLICAASGNIFAYNAMGWYRQAPGKERELVAAISVIGGTTYYADSVKGRFTISRDNAKNTVYLQMNSLKPEDTAVYSCSVDSVQYGGGYERLHELYYWGQGTQVTVSS	low polyreactivity
QDQLVESGGGLVQAGGSLRLSCAASGNTFYVNVMGWYRQPPGKVREFVAAISTRGVSTSYADSVKGRFTISRDIAMNTVYLQMNSLKPEDTAVYYCAASFRRPEPKGTTYGYWGQGTQVTVSS	high polyreactivity
